# Measurements published in article PMC11979331, “RcSRR1 interferes with the RcCSN5B-mediated deneddylation of RcCRL4 to modulate RcCO proteolysis and prevent rose flowering under red light”.
# T1: RcFRSL3 (UniProt A0A2P6RRT4 1-153)
# T1 sequence: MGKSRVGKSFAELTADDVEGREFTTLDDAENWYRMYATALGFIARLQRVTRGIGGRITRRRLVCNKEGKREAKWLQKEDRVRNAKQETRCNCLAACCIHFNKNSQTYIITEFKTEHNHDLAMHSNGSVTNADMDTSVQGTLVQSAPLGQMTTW
# Molecular target: T1, RcFRSL3
# Experiment: EMSA; Light Shift Chemiluminescent EMSA kit (buffer per manufacturer), about 2 ug protein, 24 C, 20 min; 6% native PAGE in 0.5x TBE; pH and salt not given
# Settings: protein: recombinant; tags: GST (pGEX4T-1) per construct section; called His-RcFRSL3 in EMSA section; label: 3' biotin on both strands; blunt
binder,measurement,value
RcSRR1 promoter G-box probe (dsDNA) DNA 1: TTCAGGTACCGTATTCACGTTTTTCGAAGTTCAGGTACTA DNA 2: TAGTACCTGAACTTCGAAAAACGTGAATACGGTACCTGAA,binding result,binds
